T1: hFLT3-His fusion protein (human, UniProt P36888 27-541, limits assumed)
T1 construct: Soluble recombinant antigen used for immunisation, ELISA, SPR and BLI binning; also called recombinant hFLT3 protein; not shown: His tag
T1 sequence (looked up): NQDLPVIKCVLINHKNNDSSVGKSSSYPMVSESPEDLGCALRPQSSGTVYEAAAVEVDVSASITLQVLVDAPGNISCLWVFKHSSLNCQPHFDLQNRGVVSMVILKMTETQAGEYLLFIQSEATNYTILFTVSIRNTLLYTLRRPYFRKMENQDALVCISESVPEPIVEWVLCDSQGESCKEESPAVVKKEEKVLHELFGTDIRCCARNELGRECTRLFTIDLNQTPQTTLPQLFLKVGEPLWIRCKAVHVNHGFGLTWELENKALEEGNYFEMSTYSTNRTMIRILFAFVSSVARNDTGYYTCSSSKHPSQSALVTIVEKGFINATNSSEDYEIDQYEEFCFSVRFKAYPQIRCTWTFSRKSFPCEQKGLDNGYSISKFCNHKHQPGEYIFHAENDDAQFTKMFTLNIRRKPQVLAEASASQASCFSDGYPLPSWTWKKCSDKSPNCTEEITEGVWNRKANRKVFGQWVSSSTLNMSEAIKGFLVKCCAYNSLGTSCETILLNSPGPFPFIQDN

T2: human NKG2D (human, UniProt P26718 78-216, limits assumed)
T2 sequence (looked up): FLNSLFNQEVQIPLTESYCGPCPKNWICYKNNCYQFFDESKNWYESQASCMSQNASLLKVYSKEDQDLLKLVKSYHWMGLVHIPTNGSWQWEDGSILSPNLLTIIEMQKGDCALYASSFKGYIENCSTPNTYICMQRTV

B1: 14H8.E7 (antibody, V domains shown)
VH: EVQLQESGAELVKPGASVKLSCKASGYTFTNYWINWLKQRPGQGLEWIGNIYPGSTIINYNEKFKNKATLTVDTSSSTAYMQLSSLTSDDSAVYYCARRVVYLYFDSWGQGTTLTVSS
VL: QIVLTQSPAIMSASPGEKVTMTCSASSSVSYMHWYQQKSGTSPKRWIFDTSKLASGVPVRFSGSGSGTSYSLTITNMETEDAATYYCQQWSSKSPTFGGGTKLEIK
B2: F3′-1158 dead-2D (bispecific antibody, human IgG1, kappa)
chain: DIVMTQSPDSLAVSLGERATINCRASESVDTYGSSFVHWYQQKPGQPPKLLIYLASNLESGVPDRFSGSGSGTDFTLTISSLQAEDVAVYYCQQNNEEPWTFGCGTKVEIKGGGGSGGGGSGGGGSGGGGSQVQLVQSGAEVKKPGASVKVSCKASGYTFTRYVMHWVRQAPGQCLEWMGFINPYNDDTKYNEKFKGRVTITRDTSASTAYMELSSLRSEDTAVYYCARWRQLGSLDSWGQGTTVTVSSGSDKTHTCPPCPAPELLGGPSVFLFPPKPKDTLMISRTPEVTCVVVDVSHEDPEVKFNWYVDGVEVHNAKTKPREEQYNSTYRVVSVLTVLHQDWLNGKEYKCKVSNKALPAPIEKTISKAKGQPREPRVYTLPPCRDELTKNQVSLTCLVKGFYPSDIAVEWESNGQPENNYKTTPPVLVSDGSFTLYSKLTVDKSRWQQGNVFSCSVMHEALHNHYTQKSLSLSPG
heavy: EVQLVESGGGLVKPGGSLRLSCAASGFTFSSYSMNWVRQAPGKGLEWVSSISSSSSYIYYADSVKGRFTISRDNAKNSLYLQMNSLRAEDTAVYYCARGAPIGAAAGWFDPWGQGTLVTVSSASTKGPSVFPLAPSSKSTSGGTAALGCLVKDYFPEPVTVSWNSGALTSGVHTFPAVLQSSGLYSLSSVVTVPSSSLGTQTYICNVNHKPSNTKVDKKVEPKSCDKTHTCPPCPAPELLGGPSVFLFPPKPKDTLMISRTPEVTCVVVDVSHEDPEVKFNWYVDGVEVHNAKTKPREEQYNSTYRVVSVLTVLHQDWLNGKEYKCKVSNKALPAPIEKTISKAKGQPREPQVCTLPPSRDELTENQVSLTCLVKGFYPSDIAVEWESNGQPENNYKTTPPVLDSDGSFFLYSWLTVDKSRWQQGNVFSCSVMHEALHNHYTQKSLSLSPG
light: DIQMTQSPSTLSASVGDRVTITCRASNSISSWLAWYQQKPGKAPKLLIYEASSTKSGVPSRFSGSGSGTEFTLTISSLQPDDFATYYCQQYDDLPTFGGGTKVEIKRTVAAPSVFIFPPSDEQLKSGTASVVCLLNNFYPREAKVQWKVDNALQSGNSQESVTEQDSKDSTYSLSSTLTLSKADYEKHKVYACEVTHQGLSSPVTKSFNRGEC
notes: also called first variant

What was measured:
[1] = biological target: T1, hFLT3-His fusion protein; experiment: SPR, purified murine subclone, hFLT3-His, 1:1 binding fit
[2] = biological target: T2, human NKG2D; experiment: assay not described

Binder | binding result [1] | binding result [2]
B1 | binds | 
B2 |  | no binding
